Test results reported in article PMC9600339, “Calpain-1: a Novel Antiviral Host Factor Identified in Porcine Small Intestinal Mucus” (mBio, 2022).
Values joined by “and” are separate entries in the source; they are usually repeats but may differ in a detail not shown here. Identical values can stand only once.

B1: porcine calpain-1 (enzyme, pig (Sus scrofa), UniProt P35750 1-714, looked up)
chain: MAEEVITPVYCTGVSAQVQKLRAKELGLGRHENAIKYLGQDYEQLRAHCLQSGSLFRDEAFPPVPQSLGFKELGPNSSKTYGVKWKRPTELFSNPQFIVDGATRTDICQGALGDCWLLAAIASLTLNDTLLHRVVPHGQSFQNGYAGIFHFQLWQFGEWVDVVVDDLLPTKDGKLVFVHSAQGNEFWSALLEKAYAKVNGSYEALSGGSTSEGFEDFTGGVTEWYELRKAPSDLYSIILKALERGSLLGCSIDISSVLDMEAVTFKKLVKGHAYSVTGAKQVNYQGQMVNLIRMRNPWGEVEWTGAWSDGSSEWNGVDPYQRDQLRVRMEDGEFWMSFRDFLREFTRLEICNLTPDALKSQRVRNWNTTLYEGTWRRGSTAGGCRNYPATFWVNPQFKIRLEETDDPEDDYGGRESGCSFVLALMQKHRRRERRFGRDMETIGFAVYEVPPELVGQPVHLKRDFFLANASRARSEQFINLREVSTRFRLPPGEYVVVPSTFEPNKEGDFVLRFFSEKKAGTQELDDQVQAILPDEQVLSEEEIDENFKALFRQLAGEDMEISVRELRTILNRIISKHKDLRTKGFSLESCRSMVNLMDRDGNGKLGLVEFNILWNRIRNYLSIFRKFDLDKSGSMSAYEMRMAIESAGFKLNKKLFELIITRYSEPDLAVDFDNFVCCLVRLETMFRFFKTLDTDLDGVVTFDLFKWLQLTMFA
notes: calpain-1 (catalytic subunit), pig (Sus scrofa); The discussion says in general that calpain-1 is a heterodimer of a catalytic subunit and a regulatory subunit (CAPNS1); also called CAP; p-calpain-1; source: calpain-1 purified from porcine small intestinal mucus fraction III on an antibody column; recombinant p-calpain-1 from HEK 293F, Ni-NTA

How the values were obtained:
[1] = molecular target: porcine calpain-1 (pig (Sus scrofa)) (UniProt P35750); assay: SPR; calpain-1 immobilised on a CM5 chip by amino coupling (8,860 RU); PEDV S1 protein injected at 100 to 0.8 uM; room temperature; running buffer pH 5.4, 25 mM HEPES, 100 mM NaCl, 3 mM EDTA with 5 mM CaCl2; 1:1 Langmuir model; average KD of triplicates
[2] = molecular target: recombinant S1 protein of PEDV strain CV777 (S1 domain of the spike protein) (porcine epidemic diarrhea virus, …, UniProt Q91AV1 1-1319, Expressed in a prokaryotic system, so not glycosylated. Construct limits are not printed: S1 is taken by convention as ending at residue 789, with the signal peptide 1-25 removed per UniProt.); assay: as above; conditions: both partners purified

| Molecule | Kd [1] [µM] | Kd [2] |
| --- | --- | --- |
| protein S1Δb1: PEDV S1 (CV777) lacking the b1 domain (N297 to A337) (from UniProt Q91AV1 1-1319) (domain or fragment) | 198 | – |
| recombinant S1 protein of PEDV strain OH851 (S1 domain of the spike protein) (domain or fragment) | 0.787 | – |
| B1 | – | 1.07 µM and 2.5 µM |
